Test results as given in paper PMC4046963.

Target: Neisseria gonorrhoeae MtrE outer membrane channel (Neisseria gonorrhoeae) (UniProt Q51006)
Test: crystal structure; sitting-drop vapor diffusion, 20% PEG 400, 0.2 M sodium acetate pH 4.6, 0.25 M MgSO4, 2% OG, 0.05% DDM; space group P6(3)22, one protomer per asymmetric unit; 3.29 Å

## Neisseria gonorrhoeae MtrE outer membrane channel (from UniProt Q51006 1-467) (natural protein)
  stoichiometry N: 3
